Patent US20190336427A1, “NOVEL PROTEIN TRANSDUCTION DOMAIN AND USE THEREOF” (BIOCELTRAN CO., LTD., priority 2016, published 2019)
Ends that are not written are not given here.

How the values were obtained:
porcine skin [1] = assay: Skin penetration of cell-penetrating peptide-FGF2 mixture by tissue staining, Franz cells with porcine skin; format: in vitro ADME; details: 500 μg, 24 hours
Method: For skin penetration analysis of FGF2 through tissue staining, Franz cells using the porcine skin were treated with equal amounts (500 μg) of FGF2, PEP1-FGF2 and a STeP-FGF2 mixture. After 24 hours, the porcine skin between the Franz cells was taken out, washed with distilled water and subjected to tissue staining. The porcine skin site exposed to donor cells was cut and then immobilized in 10% buffered formalin to produce a paraffin block, and tissues were sectioned to 7 μm using a microtome. Then, the tissues were mounted on a slide, paraffin was removed, the residue was hydrated and tissue fragments were blocked for 30 minutes. The blocked tissues were treated with […] (cell signaling, green) and reacted at 4° C. for 18 hours. On the following day, the resulting tissues were washed with PBST, treated with an Alexa Fluor 488 secondary antibody at room temperature for 2 hours and washed with PBST again. Then, the tissue fragments were dyed with a solution of a nuclear staining reagent (DAPI) diluted at 1/5000 in PBS in the absence of light for 10 minutes and washed with PBS three times. The tissue fragments were mounted and then analyzed with a confocal scanning laser microscope.

HaCaT cells = assay: Cytotoxicity of cell-penetrating peptides (WST, cell viability); details: HaCaT cells, 2.5, 5 and 10 μM peptide, 24 hours
Method: Cytotoxicity was evaluated to identify whether or not the peptides of the present invention could be harmlessly used to deliver polymers in vivo.
HaCaT cells cultured in DMEM containing 10% FBS were seeded in a unit dose of 2.5×10^4 on a 96-well plate, cultured for 24 hours and washed with HBSS twice. Cell-penetrating peptides, PEP1 and STeP, were dissolved at different concentrations of 50 μM, 100 μM and 200 μM in D.W. and diluted in a medium such that the final concentrations reached 2.5 μM, 5 μM and 10 μM, and the cells were treated with the resulting peptides and then reacted for 24 hours at 37° C. in a 5% CO2 incubator. After culture, the supernatant was removed, a WST solution was diluted in a medium in a ratio of 1:9 and the cells were treated with the medium. After culturing for 3 hours, absorbance was measured at 450 nm, and cell viability was calculated for cells of a peptide non-treatment group and cells of a peptide treatment group.

[2] = target: EGF receptors in cells (mouse fibroblasts, Balb/c 3T3 clone A31 cells) (mouse) (UniProt Q01279); assay: cell-based or functional assay
porcine skin [3] = assay: Skin penetration of cell-penetrating peptide-FITC mixture, Franz cells with porcine skin; format: in vitro ADME; details: 100 μM mixture, FITC:peptide molar ratio 1:0 and 1:2
Method: Franz cells (diameter of 9 mm) were used in order to identify whether or not penetration of FITC into the skin as well as cells was improved under the condition of non-covalent bonding to STeP.
FITC and cell-penetrating peptides (PEP1, STeP) dissolved in borax buffer (pH 8.0) were prepared. The FITC and cell-penetrating peptides (PEP1, STeP) were mixed in a molar ratio of 1:0 and 1:2, and reacted at 37° C. for 30 minutes, and the top of Franz cells were treated with 100 μM of the finally obtained cell-penetrating peptide-FITC mixture. The porcine skin was isolated and washed with PBS three times. After washing, the cryo mold was treated with an OCT embedding matrix (Cell Path Ltd., UK) and tissues were frozen at −70° C. The frozen tissues were cross-sectioned to a thickness of 7 μm at −20° C. using a cryotome (HM520, Germany) to produce fragment slides. To dye the nucleus of the skin cells, tissue fragments fixed to a slide glass were dyed with a solution of a nuclear staining reagent (DAPI) diluted at 1/5000 in PBS in the absence of light for 10 minutes and washed with PBS three times. The resulting cells were mounted and then analyzed with a confocal scanning laser microscope.

With “FGF2: fibroblast growth factor-2, basic fibroblast growth factor” the “skin penetration of FGF2 (delivery into porcine skin tissues)” value (porcine skin [1]) was “not delivered into porcine skin tissues at all”.

KETWWETWWTEWSQPYGRKKRRQRRRC [STeP] was tested, and the “cytotoxicity (cell viability)” value (HaCaT cells) was “did not exhibit cytotoxicity”.

With “PEP1-EGF recombinant protein (from UniProt P01133 23-1207) (ligand)” the Cell proliferation activity (unit/mM), WST assay on Balb/c 3T3 clone A31 cells [2] was 1.39e+07 unit/mM.

In the case of fluorescein isothiocyanate [FITC], the “skin penetration of FITC” value (porcine skin [3]) is reported as “present in the cornified layer of the porcine skin”.
